Source: PMC12959407 (Science Advances, 2026)
Several values for one entry are separate records, joined by “and”; a condition that tells them apart may be missing. Identical values can stand only once.

Molecular target: the molecule itself
Assay: cryo-EM structure; single-particle cryo-EM of purified proteins; mHsp60 10 uM and mHsp10 8 uM mixed in 20 mM tris-HCl pH 7.7, 20 mM KCl, 10 mM MgCl2, 2 mM ATP; incubated 30 s to 30 min before vitrification

B1: recombinant WT human mitochondrial Hsp60 (mHsp60), mature form (natural protein)
chain: GSAKDVKFGADARALMLQGVDLLADAVAVTMGPKGRTVIIEQSWGSPKVTKDGVTVAKSIDLKDKYKNIGAKLVQDVANNTNEEAGDGTTTATVLARSIAKEGFEKISKGANPVEIRRGVMLAVDAVIAELKKQSKPVTTPEEIAQVATISANGDKEIGNIISDAMKKVGRKGVITVKDGKTLNDELEIIEGMKFDRGYISPYFINTSKGQKCEFQDAYVLLSEKKISSIQSIVPALEIANAHRKPLVIIAEDVDGEALSTLVLNRLKVGLQVVAVKAPGFGDNRKNQLKDMAIATGGAVFGEEGLTLNLEDVQPHDLGKVGEVIVTKDDAMLLKGKGDKAQIEKRIQEIIEQLDVTTSEYEKEKLNERLAKLSDGVAVLKVGGTSDVEVNEKKDRVTDALNATRAAVEEGIVLGGGCALLRCIPALDSLTPANEDQKIGIEIIKRTLKIPAMTIAKNAGVEGSLIVEKIMQSSSEVGYDAMAGDFVNMVEKGIIDPTKVVRTALLDAAGVASLLTTAEVVVTEIPKEEKDPGMGAMGGMGGGMGGGMF
notes: additional Gly-Ser kept at the N terminus after TEV cleavage; human mitochondrial Hsp60 without the 26-residue mitochondrial targeting signal of the 573-residue precursor; mature protein of 547 residues beginning with AKDVKFG; numbers count on: the mature protein; Forms heptameric rings; seven copies in single rings and half-footballs, fourteen in double rings, bullets and footballs; also called …
For B1, the “stoichiometry N” value was 7 and 14.
